Assay [1] deals with T1, CEA-derived … (SEQ ID NO: 71)-HLA-A*0201 complex (biotin on the C-terminal biotinylation tag (enzymatic, BirA)).
T1 construct: also called soluble biotinylated HLA-A2-peptide complex; not shown: C-terminal biotinylation tag that replaces the transmembrane and cytoplasmic domains
In words: Biacore SPR, pMHC immobilised. As for the experimental part: SPR measures changes in refractive index expressed in response units (RU) near a sensor surface within a small flow cell, a principle that can be used to detect receptor ligand interactions and to analyse their affinity and kinetic parameters. The probe flow cells were prepared by immobilising the pMHC complexes in flow cells via biotin-tag binding. The assay was then performed by passing soluble ILT over the surfaces of the different flow cells at a constant flow rate, measuring the SPR response in doing so.
For orientation: Surface plasmon resonance follows binding to a sensor surface in real time, without labels.

In assay [2] the target is Class I pMHC on Mel 624 target cells. In words: cell-based or functional assay.

“And” between values parts separate entries of the source, which are not always exact repeats. Identical values can stand only once.

Experimental findings from US20110172168A1 (MEDIGENE, published 2011) are described below.

What is called Kd is the equilibrium constant for the complex coming apart. A higher Kd goes with a looser complex. The koff is the rate constant with which the complex falls apart.

B1: SEQ ID NO 22 (receptor)
chain: MAGHLPKPTLWAEPGSVITMDQPVTLRCQGGQETQEYRLYREKKTAPWITRIPQELVKKGQFPIPSITWEHAGRYRCYYGSDTSQWSASSDPLELVVTGVYIKPTLSAQPSPVVNSGGNVTLQCDSQVAFDGFILCKEGEDEHPQCLNSQPHARGSSRAIFSVGPVSPSRRWWYRCYAYGRWLPYEWSLPSDLLELDVD
With B1, in assay [1], the Kd is no more than 1000 nM and the koff is no more than 2 s⁻¹.

B2: soluble high affinity c83 (SEQ ID NO: 19) ILT-like polypeptide (receptor)
chain: MAGHLPKPTLWAEPGSVITMDQPVTLRCQGGQETQEYRLYREKKTAPWITRIPQELVKKGQFPIPSITWEHAGRYRCYYGSDTSQWSASSDPLELVVTGVYIKPTLSAQPSPVVNSGGNVTLQCDSQVAFDGFILCKEGEDEHPQCLNSQPHARGSSRAIFSVGPVSPSRRWWYRCYAYMSWSPYEWSLPSDLLELDVDG
notes: also called clone 83 (c83) ILT-2 polypeptide
On to B2, for which, in assay [1], the Kd was no more than 1000 nM and the koff is no more than 2 s⁻¹. Further, in assay [2], the “Average IC50, inhibition of CTL activation (IFN-γ ELISPOT)” value was found to be 96 nM; the “IC50, inhibition of CTL activation (IFN-γ ELISPOT, Mel 624 target cells, MART-1 specific T cell clone KA/C5)” value is 76 nM and 94 nM and 117 nM.
